Test results reported in PMC4970744.

Biological target: HPV-16Q150A peptide (Human papillomavirus type 16)
Test: affinity purification with mass spectrometry; biotinylated peptide (500 ug) on streptavidin magnetic sepharose beads; pre-cleared HaCaT cell extract, 2 h at 4°C; lysis buffer 50 mM HEPES pH 7.4, 150 mM NaCl, 1 mM MgCl2, 1% Triton X-100; trypsin digest and mass spectroscopy; pooled from at least two pull-downs

B1: ZO-2 (natural protein)
chain: MPVRGDRGFPPRRELSGWLRAPGMEELIWEQYTVTLQKDSKRGFGIAVSGGRDNPHFENGETSIVISDVLPGGPADGLLQENDRVVMVNGTPMEDVLHSFAVQQLRKSGKVAAIVVKRPRKVQVAALQASPPLDQDDRAFEVMDEFDGRSFRSGYSERSRLNSHGGRSRSWEDSPERGRPHERARSRERDLSRDRSRGRSLERGLDQDHARTRDRSRGRSLERGLDHDFGPSRDRDRDRSRGRSIDQDYERAYHRAYDPDYERAYSPEYRRGARHDARSRGPRSRSREHPHSRSPSPEPRGRPGPIGVLLMKSRANEEYGLRLGSQIFVKEMTRTGLATKDGNLHEGDIILKINGTVTENMSLTDARKLIEKSRGKLQLVVLRDSQQTLINIPSLNDSDSEIEDISEIESNRSFSPEERRHQYSDYDYHSSSEKLKERPSSREDTPSRLSRMGATPTPFKSTGDIAGTVVPETNKEPRYQEDPPAPQPKAAPRTFLRPSPEDEAIYGPNTKMVRFKKGDSVGLRLAGGNDVGIFVAGIQEGTSAEQEGLQEGDQILKVNTQDFRGLVREDAVLYLLEIPKGEMVTILAQSRADVYRDILACGRGDSFFIRSHFECEKETPQSLAFTRGEVFRVVDTLYDGKLGNWLAVRIGNELEKGLIPNKSRAEQMASVQNAQRDNAGDRADFWRMRGQRSGVKKNLRKSREDLTAVVSVSTKFPAYERVLLREAGFKRPVVLFGPIADIAMEKLANELPDWFQTAKTEPKDAGSEKSTGVVRLNTVRQIIEQDKHALLDVTPKAVDLLNYTQWFPIVIFFNPDSRQGVKTMRQRLNPTSNKSSRKLFDQANKLKKTCAHLFTATINLNSANDSWFGSLKDTIQHQQGEAVWVSEGKMEGMDDDPEDRMSYLTAMGADYLSCDSRLISDFEDTDGEGGAYTDNELDEPAEEPLVSSITRSSEPVQHEESIRKPSPEPRAQMRRAASSDQLRDNSPPPAFKPEPPKAKTQNKEESYDFSKSYEYKSNPSAVAGNETPGASTKGYPPPVAAKPTFGRSILKPSTPIPPQEGEEVGESSEEQDNAPKSVLGKVKIFEKMDHKARLQRMQELQEAQNARIEIAQKHPDIYAVPIKTHKPDPGTPQHTSSRPPEPQKAPSRPYQDTRGSYGSDAEEEEYRQQLSEHSKRGYYGQSARYRDTEL
- reduction in binding against the HPV-16 peptide: 25%
